Key:
GIPR variants (groups) [1] = assay: β-arrestin 2 recruitment (BRET); settings: for In vitro groups (β-arrestin): arr part of the in vitro group; for Beta, Barr: in vitro β-arrestin recruitment per GIPR variant;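 for all read-outs here: BRET readout of β-arrestin 2 recruitment in transiently transfected HEK293 cells expressing WT GIPR or a GIPR variant plus GPCR kinase 2, Rluc8 donor and citrine acceptor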
GIPR G144S = molecular target: T1, GIPR G144S (Homo sapiens, UniProt P48546, G144S); assay: cAMP accumulation; assay type: cell-based
T1 construct: host or cells: HEK293
T1 sequence (P48546 22-466 G144S): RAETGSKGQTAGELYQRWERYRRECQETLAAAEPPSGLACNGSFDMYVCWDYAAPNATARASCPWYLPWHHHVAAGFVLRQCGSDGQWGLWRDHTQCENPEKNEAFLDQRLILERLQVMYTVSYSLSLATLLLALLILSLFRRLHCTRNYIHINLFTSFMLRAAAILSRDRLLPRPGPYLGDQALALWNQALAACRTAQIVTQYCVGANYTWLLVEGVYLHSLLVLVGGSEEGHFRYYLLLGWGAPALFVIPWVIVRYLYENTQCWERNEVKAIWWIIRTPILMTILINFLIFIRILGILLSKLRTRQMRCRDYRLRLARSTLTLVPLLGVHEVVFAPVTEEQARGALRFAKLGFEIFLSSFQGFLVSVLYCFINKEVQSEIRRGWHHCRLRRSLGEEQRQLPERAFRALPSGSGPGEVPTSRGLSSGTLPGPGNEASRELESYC
Procedure: (§1) HEK293 (CRL-1573, American Type Culture Collection) and β-arrestin 1/2 knockout cells, generated from HEK293A[48], were used for cAMP measurement, homologues competition binding and β-arrestin 2 recruitment. […] Both cell lines were cultured at 5% CO2 at 37 °C in Roswell Park Memorial Institute GlutaMAX-I supplemented with 10% fetal bovine serum, 180 units ml^−1 penicillin, and 45 g ml^−1 streptomycin. For the cAMP and binding experiments, cells were transfected with the calcium phosphate precipitation method[49].
(§2) cAMP production was measured with the DiscoverX Hithunter cAMP assay according to the manufacturer’s protocol (DiscoverX). […] On the day of the assay, the cells were washed twice with HEPES-buffered saline (HBS) and incubated with HBS and 1 mM 3-isobutyl-1-methylxanthine for 30 min at 37 °C. […] After the incubation, the assay medium was removed from the plate and the cells were washed with 30 µl PBS and treated with 40 µl enzyme donor–lysis buffer–chemiluminescent reagents and 10 µl cAMP antibodies for 60 min before 40 µl enzyme acceptor solution added. After a 3-h incubation on a shaking table in the dark, the cAMP accumulation was measured based on luminescence with a Perkin Elmer EnVision 2104 Multilabel Microplate Reader. […]

GIPR variants (groups) [2] = assay: cAMP accumulation; assay type: cell-based, human; settings: for In vitro groups (cAMP): cAMP part of the in vitro group; for percentage_camp: cAMP production compared with WT; for Beta, cAMP: in vitro cAMP production per GIPR variant
Procedure: HEK293 (CRL-1573, American Type Culture Collection) and β-arrestin 1/2 knockout cells, generated from HEK293A[48], were used for cAMP measurement, homologues competition binding and β-arrestin 2 recruitment. For the internalization assay, endosomal signalling and basal receptor localization experiments, HEK293A (R70507, Thermo Fisher) cells were used. Both cell lines were cultured at 5% CO2 at 37 °C in Roswell Park Memorial Institute GlutaMAX-I supplemented with 10% fetal bovine serum, 180 units ml^−1 penicillin, and 45 g ml^−1 streptomycin. For the cAMP and binding experiments, cells were transfected with the calcium phosphate precipitation method[49]. The polyethyleneimine (PEI) transfection method was used for the β-arrestin 2 recruitment assays[50], endosomal signalling and basal receptor localization assays, while the lipofectamine transfection method was used for the internalization assay.
cAMP production was measured with the DiscoverX Hithunter cAMP assay according to the manufacturer’s protocol (DiscoverX). […] On the day of the assay, the cells were washed twice with HEPES-buffered saline (HBS) and incubated with HBS and 1 mM 3-isobutyl-1-methylxanthine for 30 min at 37 °C. […] After the incubation, the assay medium was removed from the plate and the cells were washed with 30 µl PBS and treated with 40 µl enzyme donor–lysis buffer–chemiluminescent reagents and 10 µl cAMP antibodies for 60 min before 40 µl enzyme acceptor solution added. After a 3-h incubation on a shaking table in the dark, the cAMP accumulation was measured based on luminescence with a Perkin Elmer EnVision 2104 Multilabel Microplate Reader.
For cAMP accumulation, the data were fitted as a sigmoidal curve with a Hill slope of 1; for homologous competition binding, the data were fitted as a sigmoidal curve with a Hill slope of −1.

GIPR A150T = molecular target: T2, GIPR A150T (Homo sapiens, UniProt P48546, A150T); assay: cAMP accumulation; assay type: cell-based
T2 construct: host or cells: HEK293
T2 sequence (P48546 22-466 A150T): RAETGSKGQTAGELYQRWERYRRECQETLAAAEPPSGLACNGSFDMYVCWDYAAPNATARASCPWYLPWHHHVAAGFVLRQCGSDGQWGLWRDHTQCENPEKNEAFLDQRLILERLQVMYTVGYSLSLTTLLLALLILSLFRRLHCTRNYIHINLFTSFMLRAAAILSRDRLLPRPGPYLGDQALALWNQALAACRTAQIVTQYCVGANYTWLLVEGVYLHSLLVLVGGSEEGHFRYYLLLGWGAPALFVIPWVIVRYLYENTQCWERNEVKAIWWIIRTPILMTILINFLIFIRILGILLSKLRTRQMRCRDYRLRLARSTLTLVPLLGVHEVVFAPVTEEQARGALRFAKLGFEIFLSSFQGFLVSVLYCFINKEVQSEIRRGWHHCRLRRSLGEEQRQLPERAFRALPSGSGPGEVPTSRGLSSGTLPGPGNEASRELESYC
Procedure: as §1, §2

GIPR R164Q = molecular target: T3, GIPR R164Q (Homo sapiens, UniProt P48546, R164Q); assay: cAMP accumulation; assay type: cell-based
T3 construct: host or cells: HEK293
T3 sequence (P48546 22-466 R164Q): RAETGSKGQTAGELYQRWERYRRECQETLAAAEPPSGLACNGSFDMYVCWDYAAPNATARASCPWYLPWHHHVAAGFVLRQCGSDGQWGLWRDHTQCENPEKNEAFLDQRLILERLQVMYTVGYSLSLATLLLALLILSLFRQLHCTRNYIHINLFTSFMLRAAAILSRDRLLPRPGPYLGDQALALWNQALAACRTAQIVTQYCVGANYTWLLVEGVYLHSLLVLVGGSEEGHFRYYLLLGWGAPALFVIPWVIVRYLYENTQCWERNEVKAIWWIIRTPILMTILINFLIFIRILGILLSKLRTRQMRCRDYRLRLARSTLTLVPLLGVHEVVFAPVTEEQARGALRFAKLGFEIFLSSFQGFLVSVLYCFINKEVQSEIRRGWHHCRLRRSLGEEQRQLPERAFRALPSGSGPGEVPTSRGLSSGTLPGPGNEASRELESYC
Procedure: as §1, §2

GIPR R164W = molecular target: T4, GIPR R164W (Homo sapiens, UniProt P48546, R164W); assay: cAMP accumulation; assay type: cell-based
T4 construct: host or cells: HEK293
T4 sequence (P48546 22-466 R164W): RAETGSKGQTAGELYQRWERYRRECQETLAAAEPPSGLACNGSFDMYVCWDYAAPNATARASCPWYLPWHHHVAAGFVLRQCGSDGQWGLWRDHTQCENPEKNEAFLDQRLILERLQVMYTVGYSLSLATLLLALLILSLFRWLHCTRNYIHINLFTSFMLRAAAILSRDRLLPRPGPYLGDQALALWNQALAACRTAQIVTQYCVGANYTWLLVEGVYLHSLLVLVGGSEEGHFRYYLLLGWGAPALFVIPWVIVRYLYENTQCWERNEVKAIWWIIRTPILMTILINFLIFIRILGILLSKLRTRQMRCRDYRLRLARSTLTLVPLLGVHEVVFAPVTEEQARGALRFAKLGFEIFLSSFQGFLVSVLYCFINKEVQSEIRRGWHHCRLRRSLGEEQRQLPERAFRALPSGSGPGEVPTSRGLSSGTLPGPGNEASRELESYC
Procedure: as §1, §2

GIPR H166Y = molecular target: T5, GIPR H166Y (Homo sapiens, UniProt P48546, H166Y); assay: cAMP accumulation; assay type: cell-based
T5 construct: host or cells: HEK293
T5 sequence (P48546 22-466 H166Y): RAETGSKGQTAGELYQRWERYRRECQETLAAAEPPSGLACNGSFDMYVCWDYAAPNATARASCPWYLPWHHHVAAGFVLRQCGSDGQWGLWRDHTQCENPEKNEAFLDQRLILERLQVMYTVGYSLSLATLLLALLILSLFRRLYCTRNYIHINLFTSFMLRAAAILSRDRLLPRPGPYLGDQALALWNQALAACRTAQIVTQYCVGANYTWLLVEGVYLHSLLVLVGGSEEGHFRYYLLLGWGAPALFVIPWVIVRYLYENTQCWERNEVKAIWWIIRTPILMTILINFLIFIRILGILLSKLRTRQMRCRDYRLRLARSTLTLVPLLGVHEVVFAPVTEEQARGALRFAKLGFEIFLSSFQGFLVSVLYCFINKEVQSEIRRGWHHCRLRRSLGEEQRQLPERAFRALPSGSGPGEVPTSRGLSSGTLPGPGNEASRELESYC
Procedure: as §1, §2

| Molecule | In vitro groups (β-arrestin) (GIPR variants (groups) [1]) | Beta, Barr (GIPR variants (groups) [1]) | Efficacy at 100pmol (cAMP) (GIPR G144S) | In vitro groups (cAMP) (GIPR variants (groups) [2]) | percentage_camp (GIPR variants (groups) [2]) [% cAMP] | Beta, cAMP (GIPR variants (groups) [2]) | Efficacy at 100pmol (cAMP) (GIPR A150T) | Efficacy at 100pmol (cAMP) (GIPR R164Q) | Efficacy at 100pmol (cAMP) (GIPR R164W) | Efficacy at 100pmol (cAMP) (GIPR H166Y) |
| --- | --- | --- | --- | --- | --- | --- | --- | --- | --- | --- |
| G144S (protein) RAETGSKGQTAGELYQRWERYRRECQETLAAAEPPSGLACNGSFDMYVCWDYAAPNATARASCPWYLPWHHHVAAGFVLRQCGSDGQWGLWRDHTQCENPEKNEAFLDQRLILERLQVMYTVSYSLSLATLLLALLILSLFRRLHCTRNYIHINLFTSFMLRAAAILSRDRLLPRPGPYLGDQALALWNQALAACRTAQIVTQYCVGANYTWLLVEGVYLHSLLVLVGGSEEGHFRYYLLLGWGAPALFVIPWVIVRYLYENTQCWERNEVKAIWWIIRTPILMTILINFLIFIRILGILLSKLRTRQMRCRDYRLRLARSTLTLVPLLGVHEVVFAPVTEEQARGALRFAKLGFEIFLSSFQGFLVSVLYCFINKEVQSEIRRGWHHCRLRRSLGEEQRQLPERAFRALPSGSGPGEVPTSRGLSSGTLPGPGNEASRELESYC | LoF_arr | 0 | 0.204 | LoF_camp | <50 | 0.204 | – | – | – | – |
| A150T (protein) RAETGSKGQTAGELYQRWERYRRECQETLAAAEPPSGLACNGSFDMYVCWDYAAPNATARASCPWYLPWHHHVAAGFVLRQCGSDGQWGLWRDHTQCENPEKNEAFLDQRLILERLQVMYTVGYSLSLTTLLLALLILSLFRRLHCTRNYIHINLFTSFMLRAAAILSRDRLLPRPGPYLGDQALALWNQALAACRTAQIVTQYCVGANYTWLLVEGVYLHSLLVLVGGSEEGHFRYYLLLGWGAPALFVIPWVIVRYLYENTQCWERNEVKAIWWIIRTPILMTILINFLIFIRILGILLSKLRTRQMRCRDYRLRLARSTLTLVPLLGVHEVVFAPVTEEQARGALRFAKLGFEIFLSSFQGFLVSVLYCFINKEVQSEIRRGWHHCRLRRSLGEEQRQLPERAFRALPSGSGPGEVPTSRGLSSGTLPGPGNEASRELESYC | WT-like_arr | 0.8173 | – | LoF_camp | <50 | 0.1631 | 0.1631 | – | – | – |
| R164Q (protein) RAETGSKGQTAGELYQRWERYRRECQETLAAAEPPSGLACNGSFDMYVCWDYAAPNATARASCPWYLPWHHHVAAGFVLRQCGSDGQWGLWRDHTQCENPEKNEAFLDQRLILERLQVMYTVGYSLSLATLLLALLILSLFRQLHCTRNYIHINLFTSFMLRAAAILSRDRLLPRPGPYLGDQALALWNQALAACRTAQIVTQYCVGANYTWLLVEGVYLHSLLVLVGGSEEGHFRYYLLLGWGAPALFVIPWVIVRYLYENTQCWERNEVKAIWWIIRTPILMTILINFLIFIRILGILLSKLRTRQMRCRDYRLRLARSTLTLVPLLGVHEVVFAPVTEEQARGALRFAKLGFEIFLSSFQGFLVSVLYCFINKEVQSEIRRGWHHCRLRRSLGEEQRQLPERAFRALPSGSGPGEVPTSRGLSSGTLPGPGNEASRELESYC | LoF_arr | 0.3053 | – | WT-like_camp | >50 | 1.15 | – | 1.15 | – | – |
| R164W (protein) RAETGSKGQTAGELYQRWERYRRECQETLAAAEPPSGLACNGSFDMYVCWDYAAPNATARASCPWYLPWHHHVAAGFVLRQCGSDGQWGLWRDHTQCENPEKNEAFLDQRLILERLQVMYTVGYSLSLATLLLALLILSLFRWLHCTRNYIHINLFTSFMLRAAAILSRDRLLPRPGPYLGDQALALWNQALAACRTAQIVTQYCVGANYTWLLVEGVYLHSLLVLVGGSEEGHFRYYLLLGWGAPALFVIPWVIVRYLYENTQCWERNEVKAIWWIIRTPILMTILINFLIFIRILGILLSKLRTRQMRCRDYRLRLARSTLTLVPLLGVHEVVFAPVTEEQARGALRFAKLGFEIFLSSFQGFLVSVLYCFINKEVQSEIRRGWHHCRLRRSLGEEQRQLPERAFRALPSGSGPGEVPTSRGLSSGTLPGPGNEASRELESYC | LoF_arr | 0 | – | LoF_camp | <50 | 0.003189 | – | – | 0.003189 | – |
| H166Y (protein) RAETGSKGQTAGELYQRWERYRRECQETLAAAEPPSGLACNGSFDMYVCWDYAAPNATARASCPWYLPWHHHVAAGFVLRQCGSDGQWGLWRDHTQCENPEKNEAFLDQRLILERLQVMYTVGYSLSLATLLLALLILSLFRRLYCTRNYIHINLFTSFMLRAAAILSRDRLLPRPGPYLGDQALALWNQALAACRTAQIVTQYCVGANYTWLLVEGVYLHSLLVLVGGSEEGHFRYYLLLGWGAPALFVIPWVIVRYLYENTQCWERNEVKAIWWIIRTPILMTILINFLIFIRILGILLSKLRTRQMRCRDYRLRLARSTLTLVPLLGVHEVVFAPVTEEQARGALRFAKLGFEIFLSSFQGFLVSVLYCFINKEVQSEIRRGWHHCRLRRSLGEEQRQLPERAFRALPSGSGPGEVPTSRGLSSGTLPGPGNEASRELESYC | LoF_arr | 0.3616 | – | WT-like_camp | >50 | 0.9566 | – | – | – | 0.9566 |

Source: publication PMC11272584 (Nature Metabolism, 2024)
